Assay results as given in the supplement of paper PMC9732359.
± gives the uncertainty stated by the source.

Assay: protein stability index of a GFP-peptide fusion (yeast GPS) (PSI 1-4); higher = more stable; sorted into four equal gates, so the index is relative within each strain
Procedure, shortened: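 Sequencing reads from sorted gates were used to score each peptide. The library consisted of tiled 17-residue yeast protein peptides fused downstream of GFP on a Cherry-expressing plasmid, pooled and carried in yeast. Mid-log cultures in leucine-free medium were split into four equal gates by GFP/Cherry ratio, and each gate's plasmids were PCR-amplified and Illumina-sequenced. The protein stability index adds up, over all gates, the read frequency multiplied by the gate number.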

Row | Sequence | protein stability index (doa10∆) | protein stability index (pdr5∆) | protein stability index (san1∆) | protein stability index (ubr1∆)
1 | RNEVLESMDFLVLADAF [YCS4] | 2.04 ± 0.048 | 2.31 ± 0.086 | 2.43 ± 0.092 | 2.72 ± 0.048
2 | RNFDTHENYIQDDDFPL [MCD1] | 2.92 ± 0.06 | 2.8 ± 0.053 | 2.85 ± 0.048 | 2.91 ± 0.045
3 | RNLQMGLRNQNMVRNNN [GRR1] | 2.62 ± 0.088 | 2.72 ± 0.093 | 2.63 ± 0.063 | 2.54 ± 0.055
4 | RNMIIVPEMIGSVVGIY [RPS15] | 1.31 ± 0.094 | 1.42 ± 0.057 | 1.53 ± 0.13 | 1.45 ± 0.057
5 | RNNFLAENSHTQPKATS [PUP1] | 3.14 ± 0.069 | 3.1 ± 0.059 | 3.06 ± 0.044 | 3.13 ± 0.04
6 | RNRGKIHSGVLSSIESD [YMR153W/NUP53] | 2.93 ± 0.1 | 2.96 ± 0.12 | 3.13 ± 0.066 | 2.94 ± 0.087
7 | RNSYPASFYSVNTEKKT [RPN3] | 3.4 ± 0.29 | 3.06 ± 0.13 | 2.82 ± 0.068 | 3.46 ± 0.14
8 | RNTYQSAMGKQAMGVFL [RPB2] | 1.62 ± 0.097 | 1.63 ± 0.11 | 1.53 ± 0.12 | 1.79 ± 0.052
9 | RPDITMYCRPAPSDFSE [GRR1] | 2.16 ± 0.12 | 2.12 ± 0.15 | 2.97 ± 0.067 | 2.17 ± 0.076
10 | RPKKITGWITQSTPVLL [RPN1] | 2.21 ± 0.048 | 2.11 ± 0.043 | 2.3 ± 0.057 | 2.18 ± 0.035
11 | RPLKLERGFACIPLVGI [FAS1] | 1.69 ± 0.067 | 1.73 ± 0.048 | 1.51 ± 0.092 | 1.69 ± 0.048
12 | RPPNGIKNFKSLLLSSS [SSN2] | 1.51 ± 0.047 | 1.53 ± 0.047 | 1.83 ± 0.12 | 1.48 ± 0.037
13 | RPPVKAILQEKILSILN [ECM29] | 1.46 ± 0.058 | 1.83 ± 0.084 | 1.71 ± 0.14 | 2 ± 0.11
14 | RQCFQDNCCDFKVRTNL [MED1] | 3.28 ± 0.053 | 3.23 ± 0.063 | 3.42 ± 0.04 | 3.21 ± 0.038
15 | RQDGSYTYHSTNKDNKA [ARP9] | 2.67 ± 0.062 | 2.97 ± 0.067 | 2.88 ± 0.044 | 2.64 ± 0.056
16 | RQEVTKFAKANIGYVMG [RPN4] | 1.2 ± 0.15 | 1.31 ± 0.11 | 1.21 ± 0.18 | 1.14 ± 0.065
17 | RQFSNEEVNRCYLRWQH [SNF2] | 2.83 ± 0.081 | 2.78 ± 0.08 | 2.95 ± 0.086 | 3.01 ± 0.071
18 | RQINKLIDSLPGVDVSA [SRB7] | 2.43 ± 0.056 | 2.06 ± 0.05 | 1.6 ± 0.077 | 1.9 ± 0.038
19 | RQIRPIMERIKSSLSLR [ITC1] | 1.26 ± 0.06 | 1.65 ± 0.075 | 1.35 ± 0.087 | 1.42 ± 0.054
20 | RQKINGCEANIHSLVKQ [YIL149C/MLP2] | 3.12 ± 0.14 | 3.33 ± 0.13 | 2.98 ± 0.22 | 2.79 ± 0.21
21 | RQLQYETLGDILKRDFE [ECM29] | 2.92 ± 0.075 | 3.36 ± 0.099 | 2.76 ± 0.095 | 3.02 ± 0.087
22 | RQRELLIAHQRSAWNNN [GRR1] | 1.94 ± 0.045 | 2.24 ± 0.046 | 2.31 ± 0.06 | 2.16 ± 0.035
23 | RQSSDESDNYRLLPNGS [YML031W/NDC1] | 3.03 ± 0.06 | 2.97 ± 0.06 | 3.13 ± 0.078 | 3.05 ± 0.054
24 | RQTTSNTGLLNKANIQA [RPN11] | 3 ± 0.092 | 3.02 ± 0.072 | 3.17 ± 0.054 | 3.19 ± 0.07
25 | RRKTTKQNSSSDINQND [YDL088C/ASM4] | 3.16 ± 0.096 | 3.15 ± 0.098 | 2.96 ± 0.083 | 2.95 ± 0.059
26 | RRMAFKPFGSAKSDETK [YLR335W/NUP2] | 2.75 ± 0.073 | 2.74 ± 0.063 | 2.88 ± 0.058 | 2.08 ± 0.054

Row | Sequence | protein stability index (doa10∆) | protein stability index (pdr5∆) | protein stability index (san1∆) | protein stability index (ubr1∆)
27 | RRWNKLCTLNDSKGSLY [YGL100W/SEH1] | 3.31 ± 0.078 | 3.24 ± 0.072 | 2.91 ± 0.078 | 3.1 ± 0.046
28 | RRYKLLTATPNSINKTT [POP1] | 2 ± 0.046 | 2.38 ± 0.049 | 2.4 ± 0.065 | 2.52 ± 0.042
29 | RSALEKGSRFISTLQVK [RPB2] | 1.47 ± 0.13 | 1.23 ± 0.087 | 1.67 ± 0.19 | 1.6 ± 0.088
30 | RSISEPSINLDPDNTSF [ESC2] | 2.9 ± 0.074 | 3 ± 0.057 | 3.07 ± 0.058 | 3.165 ± 0.031
31 | RSKFGGDFLDFQVHERL [ARP7] | 3.15 ± 0.11 | 3.11 ± 0.1 | 3.5 ± 0.075 | 3.32 ± 0.075
32 | RSPEEIRRTFNIVNDFT [SKP1] | 1.36 ± 0.058 | 2.06 ± 0.094 | 1.53 ± 0.13 | 2.12 ± 0.04
33 | RSRKTVKAQRPITGASL [RPL24A] | 3.34 ± 0.077 | 3.22 ± 0.11 | 3.14 ± 0.12 | 3.24 ± 0.088
34 | RSRYRREIDALKKQLHV [YIL149C/MLP2] | 3.24 ± 0.074 | 3.16 ± 0.05 | 3.23 ± 0.045 | 3.2 ± 0.036
35 | RTDQYTIDNIDSENFSF [YMR129W/POM152] | 2.88 ± 0.042 | 2.99 ± 0.043 | 2.91 ± 0.039 | 3.01 ± 0.036
36 | RTGPKALPDAVTIIEPK [RPS3] | 2.97 ± 0.058 | 3.03 ± 0.066 | 3.1 ± 0.059 | 3.09 ± 0.06
37 | RTKNLVSKMEKAEKTLK [SMC4] | 2.91 ± 0.22 | 3.1 ± 0.056 | 3.21 ± 0.065 | 3.09 ± 0.058
38 | RTMYFILDGQDVEENRS [YJR042W/NUP85] | 2.45 ± 0.077 | 3.03 ± 0.089 | 3.22 ± 0.086 | 3.23 ± 0.044
39 | RTPVIISLRNNHKIIAR [SMD2] | 1.77 ± 0.042 | 1.97 ± 0.035 | 2.13 ± 0.06 | 1.81 ± 0.044
40 | RTQPWSIMPDLYFYRDP [RPS0A] | 2.55 ± 0.051 | 2.85 ± 0.056 | 2.85 ± 0.043 | 2.6 ± 0.055
41 | RTVAGFSNVELPQCIIP [ARP7] | 2.8 ± 0.05 | 2.76 ± 0.054 | 2.56 ± 0.051 | 2.7 ± 0.034
42 | RVLQLLAVIMDNIGEID [YCG1] | 1.93 ± 0.073 | 1.63 ± 0.067 | 1.46 ± 0.17 | 1.52 ± 0.046
43 | RVRNKDIRKFLDGIYVS [RPL9A] | 1.91 ± 0.081 | 2.07 ± 0.087 | 2.05 ± 0.11 | 2.23 ± 0.062
44 | RVRVTGGGHVSQVYAIR [RPS16A] | 2.61 ± 0.048 | 2.87 ± 0.045 | 2.93 ± 0.044 | 2.76 ± 0.031
45 | RYQIMLPEQLKSGKFCS [SNM1] | 2.74 ± 0.071 | 2.08 ± 0.09 | 2.7 ± 0.07 | 2.12 ± 0.061
46 | SAAELERLDKDKDRDTR [SNF5] | 1.76 ± 0.087 | 1.46 ± 0.14 | 1.9 ± 0.12 | 2.95 ± 0.11
47 | SADDDVNNGNIPSQRGT [SIR3] | 2.97 ± 0.24 | 3.01 ± 0.1 | 2.67 ± 0.11 | 2.86 ± 0.11
48 | SAFMKFSKAIEWDMLNV [BRR2] | 2.15 ± 0.07 | 1.9 ± 0.072 | 1.99 ± 0.081 | 2.04 ± 0.045
49 | SAIEHTTLKSVTIASEI [RPO21] | 2.54 ± 0.085 | 2.39 ± 0.077 | 2.57 ± 0.078 | 2.16 ± 0.045
50 | SALELVGQLNKVVDQLF [RPN6] | 2.84 ± 0.045 | 2.98 ± 0.065 | 2.82 ± 0.059 | 2.68 ± 0.042
51 | SANGYLNATTAMDLAQM [BRR2] | 3.23 ± 0.17 | – | 3.15 ± 0.088 | –
52 | SASFSLKNGDKPHMLKF [RPL6A] | 2.81 ± 0.083 | 1.84 ± 0.055 | 2.89 ± 0.06 | 3.13 ± 0.033
